The values that follow come from patent US20070015242.

In the data set the target is recombinant NC1 fragment of type XVIII collagen (UniProt P39061).
Chain of UniProt P39061 (P39061 whole entry, looked up, the tested form may be a part): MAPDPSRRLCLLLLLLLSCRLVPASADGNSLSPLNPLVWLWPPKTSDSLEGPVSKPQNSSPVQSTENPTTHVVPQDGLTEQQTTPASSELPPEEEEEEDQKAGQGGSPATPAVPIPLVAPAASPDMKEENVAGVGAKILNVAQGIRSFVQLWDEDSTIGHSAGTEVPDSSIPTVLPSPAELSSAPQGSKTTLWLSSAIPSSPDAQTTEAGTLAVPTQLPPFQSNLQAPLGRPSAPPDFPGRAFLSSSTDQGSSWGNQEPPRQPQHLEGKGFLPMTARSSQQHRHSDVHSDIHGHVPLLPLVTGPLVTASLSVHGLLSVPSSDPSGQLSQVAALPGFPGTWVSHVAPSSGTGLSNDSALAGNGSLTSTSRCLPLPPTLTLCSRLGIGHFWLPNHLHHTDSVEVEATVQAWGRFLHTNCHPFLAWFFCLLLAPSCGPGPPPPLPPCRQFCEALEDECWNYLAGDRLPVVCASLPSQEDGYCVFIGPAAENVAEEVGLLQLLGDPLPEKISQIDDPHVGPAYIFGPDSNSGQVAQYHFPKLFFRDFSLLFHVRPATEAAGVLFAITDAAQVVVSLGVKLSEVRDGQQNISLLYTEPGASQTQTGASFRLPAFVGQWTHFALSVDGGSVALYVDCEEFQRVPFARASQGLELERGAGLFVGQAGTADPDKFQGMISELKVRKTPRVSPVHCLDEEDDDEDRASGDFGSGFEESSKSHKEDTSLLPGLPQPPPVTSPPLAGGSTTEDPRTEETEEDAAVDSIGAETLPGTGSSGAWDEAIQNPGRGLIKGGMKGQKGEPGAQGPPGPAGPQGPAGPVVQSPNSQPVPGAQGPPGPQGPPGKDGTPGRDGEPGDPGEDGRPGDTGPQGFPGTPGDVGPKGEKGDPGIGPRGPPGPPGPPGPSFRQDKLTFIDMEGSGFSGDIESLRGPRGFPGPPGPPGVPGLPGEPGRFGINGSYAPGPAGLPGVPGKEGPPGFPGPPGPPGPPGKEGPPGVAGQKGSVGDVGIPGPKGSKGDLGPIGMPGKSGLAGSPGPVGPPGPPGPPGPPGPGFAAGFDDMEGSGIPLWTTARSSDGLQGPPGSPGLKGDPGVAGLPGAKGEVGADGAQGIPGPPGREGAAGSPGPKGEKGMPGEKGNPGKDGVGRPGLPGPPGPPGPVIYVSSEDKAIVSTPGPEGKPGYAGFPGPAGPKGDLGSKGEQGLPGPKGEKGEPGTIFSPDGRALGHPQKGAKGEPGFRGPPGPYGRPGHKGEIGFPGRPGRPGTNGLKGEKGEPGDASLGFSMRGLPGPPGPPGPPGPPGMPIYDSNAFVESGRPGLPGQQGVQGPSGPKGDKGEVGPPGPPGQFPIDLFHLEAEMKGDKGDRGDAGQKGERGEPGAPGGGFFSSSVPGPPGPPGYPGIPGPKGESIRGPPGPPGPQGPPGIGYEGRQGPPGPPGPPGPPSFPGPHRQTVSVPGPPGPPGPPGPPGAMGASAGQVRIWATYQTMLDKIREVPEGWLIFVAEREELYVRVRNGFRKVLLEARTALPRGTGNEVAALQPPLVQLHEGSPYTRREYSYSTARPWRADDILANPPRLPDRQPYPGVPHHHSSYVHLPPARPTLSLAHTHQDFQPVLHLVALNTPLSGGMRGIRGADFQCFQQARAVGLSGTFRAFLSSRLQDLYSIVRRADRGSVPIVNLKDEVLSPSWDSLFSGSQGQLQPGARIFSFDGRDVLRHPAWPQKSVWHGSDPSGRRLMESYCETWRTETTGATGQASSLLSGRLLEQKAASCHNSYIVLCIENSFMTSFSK

Consider “matrix metalloproteinase-14 (MMP-14), active enzyme”, for which the “cleavage of recombinant NC1 fragment (Western blot of degradation products)” value (“cleavage of recombinant NC1 fragment” below) was “MMP-7 and MMP-14 cleaved the recombinant NC1 fragment to produce neostatin-7, neostatin-14 and several endostatin-containing fragments”.
For “matrix metalloproteinase-9 (MMP-9), active enzyme”, the “cleavage of recombinant NC1 fragment” value is listed as “Treatment of the recombinant NC1 fragment of type XVIII collagen with MMP-2 or -9, similar to control, did not produce NC1 degradation products”.
As for “matrix metalloproteinase-2 (MMP-2), active enzyme”, the “cleavage of recombinant NC1 fragment” value was “Treatment of the recombinant NC1 fragment of type XVIII collagen with MMP-2 or -9, similar to control, did not produce NC1 degradation products”.

B1: matrix metalloproteinase-7 (matrilysin, MMP-7), active enzyme (enzyme, UniProt P09237 95-267, looked up, species assumed)
Matrilysin: YSLFPNSPKWTSKVVTYRIVSYTRDLPHITVDRLVSKALNMWGKEIPLHFRKVVWGTADIMIGFARGAHGDSYPFDGPGNTLAHAFAPGTGLGGDAHFDEDERWTDGSSLGINFLYAATHELGHSLGMGHSSDPNAVMYPTYGNGDPQNFKLSQDDIKGIQKLYGKRSNSRKK
modifications: APMA-activated
For B1, the “cleavage of NC1 fragments at pH 5.5, 6.5 and 7.5 (gel)” value was “the cleavage of collagen XVIII/NC1 by MMP-7 is pH sensitive, and proceeds less efficiently at more acidic pH”; the “cleavage of recombinant NC1 fragment” value was “MMP-7 and MMP-14 cleaved the recombinant NC1 fragment to produce neostatin-7, neostatin-14 and several endostatin-containing fragments”.
